Assay results: patent US20200282021A1 (GENEXINE, published 2020)

Experiments:
[1] = molecular target: GLP-1 receptor expressed on the transgenic cell line GLP1R_cAMP/luc; test: cell-based or functional assay
[2] = molecular target: T1, human GLP-1 receptor (Abcam) (human, UniProt P43220 24-145, limits assumed); test: SPR (Proteon XPR36), human GLP-1 receptor immobilised
T1 construct: Bought recombinant protein
Experimental: (§1) Binding affinity of each TAs were evaluated by SPR (Proteon XPR36, BIO-RAD) and based on the protocol modified from general procedure of SPR analysis in published paper. Specifically, the proteon GLC chip (BIO-RAD, USA) was stabilized with PBST (PBS+0.01% tween 20, pH 7.4). Stabilized GLC chip was activated with 150 uL of Sulfo-NHS (0.001 M) and EDC (0.04M) (1:1) followed by immobilization of 10 ug/mL human GLP-1 receptor (Abcam, UK) diluted in acetate buffer (pH 5.0). After immobilization level was recorded and deactivation by 1 M Ethanolamine-HCl (pH 8.5), different concentrations of Dulaglutide and GLP-1-gFc (0, 1.25, 2.5, 5, 10 uM) were injected to each channel of chip. Chip was regenerated by 25 mM NaOH and checked ‘Zero base’ before repeated analysis of same molecule or other TA. All binding sesorgrams were collected, processed, and analyzed using the integrated Proteon Manager software (Bio-RAD, USA). Binding curves were fitted using the Laugmuir model.

[3] = molecular target: T1, human GLP-1 receptor (Abcam); test: SPR (Proteon XPR36), human GLP-1 receptor immobilised, analyte 0-10 uM, Langmuir fit
Experimental: as §1

EC50, cAMP-dependent luciferase reporter in GLP-1R over-expressing cells [1]: 0.0233 nM | fold difference of EC50 against Dulaglutide, cAMP-dependent luciferase reporter [1]: 3.5 fold | fold koff against Dulaglutide [2]: ~10 fold | fold kon against Dulaglutide [2]: 1.7 fold | Kd [3]: 16 µM
B1: GLP-1(A2G)-hyFc9 (Fc fusion)
chain: HGEGTFTSDVSSYLEGQAAKEFIAWLVKGRGAKATTAPATTRNTGRGGEEKKKEKEKEEQEERETKTPECPSHTQPLGVFLFPPKPKDTLMISRTPEVTCVVVDVSQEDPEVQFNWYVDGVEVHNAKTKPREEQFNSTYRVVSVLTVLHQDWLNGKEYKCKVSNKGLPSSIEKTISKAKGQPREPQVYTLPPSQEEMTKNQVSLTCLVKGFYPSDIAVEWESNGQPENNYKTTPPVLDSDGSFFLYSRLTVDKSRWQEGNVFSCSVMHEALHNHYTQKSLSLSLGK
modifications: O-glycosylation at the IgD hinge region (positions not stated)
notes: also called GLP-1-gFc; GLP-1-hyFc9
